Substitutions are numbered along the chain they refer to. Names may count otherwise. One block for each molecule: values may come before it.
Tests used:
[1] = biological target: human CD28 (full-length, expressed on transfected Expi293F cells) (human) (UniProt P10747); assay: flow cytometry, transfected Expi293 cells
[2] = biological target: human CD28 (full-length, expressed on transfected Expi293F cells) (human) (UniProt P10747); assay: flow cytometry; ratio to WT parental stack
[3] = biological target: human PD-L1 (full-length, expressed on transfected Expi293F cells) (human) (UniProt Q9NZQ7); assay: flow cytometry, transfected Expi293 cells
[4] = biological target: human PD-L1, full-length, expressed on Expi293F cells (human) (UniProt Q9NZQ7); assay: flow cytometry, Expi293 cells expressing human PD-L1
[5] = biological target: human PD-L1 (full-length, expressed on transfected Expi293F cells) (human) (UniProt Q9NZQ7); assay: flow cytometry; ratio to WT parental stack
[6] = biological target: human CTLA4, full-length, expressed on Expi293F cells (human) (UniProt P16410); assay: flow cytometry, Expi293 cells expressing human CTLA-4
Chain of UniProt P16410 (P16410 36-223): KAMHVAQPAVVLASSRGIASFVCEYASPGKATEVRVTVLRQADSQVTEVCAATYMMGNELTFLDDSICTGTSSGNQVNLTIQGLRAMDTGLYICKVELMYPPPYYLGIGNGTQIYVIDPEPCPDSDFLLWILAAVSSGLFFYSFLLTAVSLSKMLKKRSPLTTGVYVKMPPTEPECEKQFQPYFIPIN

[7] = biological target: human CD28 (full-length, expressed on transfected Expi293F cells) (human) (UniProt P10747); assay: flow cytometry; ratio to WT ICOSL ECD-Fc

Molecule: CD80 WT / CD86 WT stacked IgV-Fc (Fc fusion)
MFI [3]: 2080 MFI

Molecule: CD80 WT / ICOSL WT stacked IgV-Fc (Fc fusion)
MFI [1]: 1230 MFI | MFI [3]: 2660 MFI

Molecule: CD80 variant A91G/S103P ECD-Fc fusion
MFI [4]: 9 MFI | MFI parental ratio (fold of WT CD80) [4]: 0.13

Molecule: CD86 Q35H/H90L/Q102H / CD80 A12T/H18L/N43V/F59L/E77K/P109S/I118T stacked IgV-Fc (Fc fusion)
MFI [3]: 2110 MFI | WT parental MFI ratio [5]: 1.39

Molecule: NKp30 WT / CD86 WT stacked IgV-Fc (Fc fusion)
MFI [1]: 1690 MFI

Molecule: NKp30 WT / ICOSL WT stacked IgV-Fc (Fc fusion)
MFI [1]: 6340 MFI

B2: CD80 variant V20L/L70Q/A91S/T120S/T130A ECD-Fc fusion (Fc fusion)
chain: VIHVTKEVKEVATLSCGHNLSVEELAQTRIYWQKEKKMVLTMMSGDMNIWPEYKNRTIFDITNNLSIVIQALRPSDEGTYECVVLKYEKDSFKREHLAEVTLSVKADFPTPSISDFEIPSSNIRRIICSASGGFPEPHLSWLENGEELNAINTTVSQDPETELYAVSSKLDFNMTTNHSFMCLIKYGHLRVNQTFNWNTTKQEHFPDNAAAEPKSSDKTHTCPPCPAPELLGGPSVFLFPPKPKDTLMISRTPEVTCVVVDVSHEDPEVKFNWYVDGVEVHNAKTKPCEEQYGSTYRCVSVLTVLHQDWLNGKEYKCKVSNKALPAPIEKTISKAKGQPREPQVYTLPPSREEMTKNQVSLTCLVKGFYPSDIAVEWESNGQPENNYKTTPPVLDSDGSFFLYSKLTVDKSRWQQGNVFSCSVMHEALHNHYTQKSLSLSPGK
MFI [4]: 9 MFI | MFI parental ratio (fold of WT CD80) [4]: 0.13

Continued, values first:

MFI [1]: 938 MFI | WT parental MFI ratio [2]: 0.57
Molecule: CD80 I67T/L70Q/A91G/T120S / CD80 E88D/K89R/D90K/A91G/F92Y/K93R stacked IgV-Fc (Fc fusion)

MFI [1]: 1630 MFI
Molecule: CD80 WT / CD80 WT stacked IgV-Fc (Fc fusion)

MFI [3]: 2970 MFI
Molecule: ICOSL WT / CD80 WT stacked IgV-Fc (Fc fusion)

MFI [1]: 7920 MFI
Molecule: ICOSL WT / Nkp30 WT stacked IgV-Fc (Fc fusion)

MFI [6]: 14 MFI | MFI parental ratio (fold of WT CD80) [6]: 0.07
B1: CD80 variant L70Q/A91G/T110A/T120S/T130A ECD-Fc fusion (Fc fusion)
chain: B2 chain with L20V, S91G, T110A

MFI parental ratio [7]: 0.89
B3: ICOSL variant ECD-Fc F120S/Y152H/N201S (Fc fusion)
chain: DTQEKEVRAMVGSDVELSCACPEGSRFDLNDVYVYWQTSESKTVVTYHIPQNSSLENVDSRYRNRALMSPAGMLRGDFSLRLFNVTPQDEQKFHCLVLSQSLGFQEVLSVEVTLHVAANSSVPVVSAPHSPSQDELTFTCTSINGYPRPNVHWINKTDNSLLDQALQNDTVFLNMRGLYDVVSVLRIARTPSVNIGCCIESVLLQQNLTVGSQTGNDIGERDKITENPVSTGEKNAATAAAEPKSSDKTHTCPPCPAPELLGGPSVFLFPPKPKDTLMISRTPEVTCVVVDVSHEDPEVKFNWYVDGVEVHNAKTKPCEEQYGSTYRCVSVLTVLHQDWLNGKEYKCKVSNKALPAPIEKTISKAKGQPREPQVYTLPPSREEMTKNQVSLTCLVKGFYPSDIAVEWESNGQPENNYKTTPPVLDSDGSFFLYSKLTVDKSRWQQGNVFSCSVMHEALHNHYTQKSLSLSPGK

Reference: patent US20180256644A1
